# Assay results published in patent US10272135B2, “Apolipoprotein O and fragments thereof for inducing apoptosis in a cancerous cell” (INSERM (INSTITUT NATIONAL DE LA SANTÉ ET DE LA RECHERCHE …, priority 2014, dated 2019).
# System: cyclophilin-D and/or ANT
# Assay: Blue Native Page and GST pull-down with heart mitochondria protein extracts
# Format: binding, mouse
# Settings: BN-PAGE and GST-ApoO pull-down (FIGS. 5A and B)
# From the text: (A) One-dimensional BN-PAGE gel analysis of mitochondrial protein complexes from mouse heart. (1): Coomassie blue staining of the 4-13% polyacrylamide one-dimensional gradient blue native gel. (2): Ponceau S staining of the transferred PVDF membrane. ApoO, ANT and CypD were detected using enhanced chemiluminescence of the transferred PVDF membranes with ApoO, ANT or CypD antibodies respectively. ApoO, ANT and CypD were detected in the same complex (black rectangle).
# (B) Western blot analysis of ApoO-GST pull-down. Upper panel: Ponceau S staining of the transferred membrane used to control loading and transfer. […]
# After ethical committee approval, all patients in this study gave written consent for sample collection and molecular analysis prior to inclusion. […] All ApoO sequences within the expression vectors were verified by DNA double strand sequencing using ABI PRISM®BigDye™ Terminator version 3.1 Ready reaction cycle sequencing kit (Life Technologies SAS, Villebon sur Yvette) and loaded on an ABI 3130XL DNA sequencing instrument (Life Technologies SAS, Villebon sur Yvette). […]
molecule,measurement,value
"ApoO: 198-amino acid apolipoprotein, SEQ ID NO: 1; tested by overexpression from expression vectors or transgene (protein, listed as Homo sapiens) MFKVIQRSVGPASLSLLTFKVYAAPKKDSPPKNSVKVDELSLYSVPEGQSKYVEEARSQLEESISQLRHYCEPYTTWCQETYSQTKPKMQSLVQWGLDSYDYLQNAPPGFFPRLGVIGFAGLIGLLLARGSKIKKLVYPPGFMGLAASLYYPQQAIVFAQVSGERLYDWGLRGYIVIEDLWKENFQKPGNVKNSPGTK",interaction with cyclophilin-D and/or ANT,interaction
